We go through one molecule from publication PMC6392013 (Methods in molecular biology (Clifton, N.J.), 2012).

For the experiment, the target named is ubiquitin (UniProt P0CG48 1-76). Nature of the experiment: NMR intermolecular NOESY.

B1: S5a (196–306) (domain or fragment, UniProt P55036 196-306, looked up)
chain: MLGLGASDFEFGVDPSADPELALALRVSMEEQRQRQEEEARRAAAASAAEAGIATTGTEDSDDALLKMTISQQEFGRTGLPDLSSMTEEEQIAYAMQMSLQGAEFGQAESA
As for B1, the binding result is recorded as “binds”.
